From US20170158761A1 (EWHA UNIVERSITY INDUSTRY COLLABORATION FOUNDATION, published 2017) come the findings set out here.

The assay addresses T1, Δ-dTCTP (FL deleted dimer TCTP) (Pan troglodytes (Chimpanzee), UniProt A5A6K2 1-172, disulfide bridge between the C-terminal cysteines (Cys172) of the two chains).
T1 construct: also called A-dTCTP; dimer form of FL domain-deleted TCTP
T1 sequence: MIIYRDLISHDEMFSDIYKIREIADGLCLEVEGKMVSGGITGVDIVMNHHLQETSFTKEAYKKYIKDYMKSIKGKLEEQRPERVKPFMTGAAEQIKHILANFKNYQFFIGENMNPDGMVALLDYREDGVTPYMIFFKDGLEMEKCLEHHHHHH
Kind of assay: ELISA: biotinylated dTBP2 (0.01 to 10 µM) on streptavidin plate, TCTP protein at 0.2 µg/ml, anti-HRF rabbit antibody detection. How it is done: To investigate the affinity to dTBP2 of f-TCTP, Δ-dTCTP, and Del-N11dTCTP of the present invention, biotin was conjugated to the COOH-terminus of dTBP2 known to bind to HRF, followed by purification. The purified protein was immobilized in the plastic well coated with streptavidin, to which f-TCTP, Δ-dTCTP, and Del-N11dTCTP were added. Then, the binding strength of each protein was investigated.
Particularly, 50 μL of the biotinylated dTBTP2 dissolved in a buffer (TBS [25 mM Tris, 150 mM NaCl, pH 7.2], 0.1% BSA, 0.05% Tween-20) at different concentrations of […] was added to Reacti-Bind Streptavidin Coated Polystyrene Plates (PIERCE), followed by reaction at room temperature for 2 hours. The plate was washed with a washing buffer three times. Each of f-TCTP, Δ-dTCTP, and Del-N11dTCTP was dissolved in TBS at the concentration of 0.2 μg/ml. 60 μl of the mixture was added to each well of the plate, followed by reaction for 1 hour. The plate was washed with a washing buffer three times. 100 μl of anti-HRF rabbit antibody (Bio-Rad) diluted in a buffer (1:2000) was added to each well of the plate, which stood at room temperature for 30 minutes. […] Color development was measured at 450 nm and 570 nm using an ELISA reader (Bio-Rad), and affinity was determined by the difference.

Where no end group is shown, it is not given here.

Turning to WYVYPSM-biotin (also called biotinylated dTBTP2) [biotinylated dTBP2 (dTCTP binding peptide 2)], the binding result is reported as “binds”.
